Assay results: paper PMC10022779, “Purification and biochemical analysis of native AMPA receptors from three different mammalian species” (PLOS ONE, 2023)

Experiments:
Details in all cases: one partner purified
[1] = molecular target: T1, GluA2 in native GluA2-containing AMPARs from pig brain (Sus scrofa (pig), endogenous brain, UniProt A0A287AEG6); test: SEC; fluorescence-size exclusion chromatography (FSEC), GFP fluorescence; 15F1-GFP Fab added to membranes solubilized in 2% digitonin (w/v), equal masses of membranes from each mammal
T1 construct: AMPA receptor subunit GluA2, pig, endogenous in brain; also called native pig AMPARs; source: endogenous, pig brain membranes, solubilized in 2% digitonin

[2] = molecular target: T2, GluA2 in native GluA2-containing AMPARs from rat brain (Rattus norvegicus, Sprague Dawley, UniProt P19491); test: as above
T2 construct: AMPA receptor subunit GluA2, rat, endogenous in brain; also called native rat AMPARs; source: endogenous, rat (Sprague Dawley) brain membranes, solubilized in 2% digitonin

[3] = molecular target: T3, GluA2 in native GluA2-containing AMPARs from mouse brain (Mus musculus, C57BL/6, UniProt P23819); test: pull-down; immunoaffinity purification: 15F1-GFP incubated with digitonin-solubilized membrane supernatant (on ice, 20 min), 15F1-GFP-bound AMPARs held on Streptactin resin by the twin-Strep II tag, eluted with 8 mM d-desthiobiotin, then SEC (Superose 6) in TBS, 1 uM (R,R)-2b, 1 uM MPQX, 0.075% digitonin; read out by FSEC and silver-stained SDS-PAGE
T3 construct: AMPA receptor subunit GluA2, mouse, endogenous in brain; also called native mouse AMPARs; source: endogenous, mouse (C57BL/6) brain membranes, solubilized in 2% digitonin
T3 sequence (P23819 25-883): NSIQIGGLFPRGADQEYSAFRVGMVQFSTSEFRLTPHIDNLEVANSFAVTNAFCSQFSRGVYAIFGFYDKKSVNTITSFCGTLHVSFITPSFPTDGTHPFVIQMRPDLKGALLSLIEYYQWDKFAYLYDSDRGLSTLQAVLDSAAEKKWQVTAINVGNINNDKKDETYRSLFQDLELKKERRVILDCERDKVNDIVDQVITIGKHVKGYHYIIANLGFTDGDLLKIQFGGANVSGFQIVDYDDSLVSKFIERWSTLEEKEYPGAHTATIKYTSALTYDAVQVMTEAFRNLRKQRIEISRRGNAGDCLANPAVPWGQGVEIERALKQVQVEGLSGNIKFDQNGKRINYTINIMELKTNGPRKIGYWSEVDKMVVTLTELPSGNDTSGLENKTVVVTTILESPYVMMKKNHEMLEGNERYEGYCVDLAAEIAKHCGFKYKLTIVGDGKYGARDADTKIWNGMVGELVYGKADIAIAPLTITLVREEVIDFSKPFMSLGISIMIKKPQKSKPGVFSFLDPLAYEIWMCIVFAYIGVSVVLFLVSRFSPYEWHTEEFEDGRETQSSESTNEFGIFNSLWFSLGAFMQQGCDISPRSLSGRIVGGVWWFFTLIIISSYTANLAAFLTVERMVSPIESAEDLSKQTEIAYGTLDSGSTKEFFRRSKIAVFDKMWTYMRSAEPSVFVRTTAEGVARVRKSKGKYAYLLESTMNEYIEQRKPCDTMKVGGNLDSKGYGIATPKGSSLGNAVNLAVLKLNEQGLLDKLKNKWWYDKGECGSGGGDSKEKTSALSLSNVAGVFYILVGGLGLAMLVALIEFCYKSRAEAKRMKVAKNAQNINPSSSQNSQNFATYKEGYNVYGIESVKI

T2 sequence (P19491 22-883): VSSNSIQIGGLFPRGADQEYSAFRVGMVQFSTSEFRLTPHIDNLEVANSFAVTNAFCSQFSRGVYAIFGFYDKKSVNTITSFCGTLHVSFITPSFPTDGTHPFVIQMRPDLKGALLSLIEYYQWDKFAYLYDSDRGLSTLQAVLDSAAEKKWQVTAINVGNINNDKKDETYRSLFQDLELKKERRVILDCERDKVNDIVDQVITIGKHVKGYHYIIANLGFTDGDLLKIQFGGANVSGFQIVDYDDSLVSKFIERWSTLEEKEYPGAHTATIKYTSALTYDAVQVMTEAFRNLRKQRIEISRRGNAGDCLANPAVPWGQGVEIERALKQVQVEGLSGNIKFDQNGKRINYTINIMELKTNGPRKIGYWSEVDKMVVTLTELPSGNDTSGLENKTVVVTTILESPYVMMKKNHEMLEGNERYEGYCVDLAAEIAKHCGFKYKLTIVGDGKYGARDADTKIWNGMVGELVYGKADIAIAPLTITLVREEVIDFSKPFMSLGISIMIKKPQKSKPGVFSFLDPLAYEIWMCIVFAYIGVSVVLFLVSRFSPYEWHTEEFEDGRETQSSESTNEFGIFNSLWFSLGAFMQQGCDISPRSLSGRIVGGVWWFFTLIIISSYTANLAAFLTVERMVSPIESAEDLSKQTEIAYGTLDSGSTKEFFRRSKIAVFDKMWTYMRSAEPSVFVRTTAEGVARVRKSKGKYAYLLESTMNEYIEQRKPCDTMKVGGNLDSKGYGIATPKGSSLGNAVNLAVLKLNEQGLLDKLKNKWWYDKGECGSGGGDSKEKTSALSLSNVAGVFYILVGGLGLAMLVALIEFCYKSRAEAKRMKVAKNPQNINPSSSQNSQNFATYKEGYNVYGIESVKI

binding result [1]: binds | binding result [2]: binds | binding result [3]: binds
B1: 15F1-GFP Fab (Fab, V domains shown)
VH: QAQLKESGPGLVAPSQSLSITCTVSGFSLTNYGVHWVRQPPGKGLEWLGVIWAGGSTNYNSALMSRVSISKDNSKSQVFLKMNSLQTDDTVMYYCAREDYDYDWHFDVWGAGTTVTVSS
VL: EIQMTQTTSSLSASLGDRVTISCRASQDISNYLSWYQQKPDGTVKLLIYYTSRLHSGVPSRFSGSGSGIDYSLTINNLEQEDFATYFCQQGNTLPLTFGAGTKLELK
notes: Fab domain of the heavy chain of the 15F1 monoclonal antibody; Fab domain of the light chain of the 15F1 monoclonal antibody; On the heavy chain eGFP is followed by the twin-Strep II tag; also called 15F1 Fab; anti-GluA2 antibody fragment; not shown: eGFP, C-terminal, kept; twin-Strep II, C-terminal, kept
